Test results as given in patent publication US20170137467A1 (CHROMOTEK, published 2017).
Substitutions are numbered along the chain they refer to. One block for each binder: values may come before it. Square brackets hold non-standard residues; d marks the D form. GABA = NCCCC(=O)O

Tests used:
BC2T R3H = biological target: T1, BC2T R3H (human); assay: library pulldown, LC-MS of supernatant; ratio vs GFP-Nb control (0=captured, 1=not captured)
T1 construct: position 3 library (BC2TR3X), row H
T1 peptide: Ac-PDHKAAVSHWQQ-NH2
In short: (§1)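 Unbound peptide left in supernatant after 1 h pulldown in PBS/0.01% CHAPS measured by reversed-phase LC-MS (8–30% eluent B gradient, 20 min).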

BC2T P1F = biological target: T2, BC2T P1F (human); assay: as above
T2 construct: position 1 library, row F
T2 peptide: Ac-FDRKAAVSHWQQ-NH2
In short: as §1

BC2T D2E = biological target: T3, BC2T D2E (human); assay: as above
T3 construct: position 2 library, row E
T3 peptide: Ac-PERKAAVSHWQQ-NH2
In short: as §1

BC2T R3D = biological target: T4, BC2T R3D (human); assay: as above
T4 construct: position 3 library (BC2TR3X), row D
T4 peptide: Ac-PDDKAAVSHWQQ-NH2
In short: as §1

BC2T P1S = biological target: T5, BC2T P1S (human); assay: as above
T5 construct: position 1 library, row S
T5 peptide: Ac-SDRKAAVSHWQQ-NH2
In short: as §1

BC2T A5W = biological target: T6, BC2T A5W (human); assay: as above
T6 construct: position 5 library, row W
T6 peptide: Ac-PDRKWAVSHWQQ-NH2
In short: as §1

BC2T P1H = biological target: T7, BC2T P1H (human); assay: as above
T7 construct: position 1 library, row H
T7 peptide: Ac-HDRKAAVSHWQQ-NH2
In short: as §1

BC2T P1T = biological target: T8, BC2T P1T (human); assay: as above
T8 construct: position 1 library, row T
T8 peptide: Ac-TDRKAAVSHWQQ-NH2
In short: as §1

BC2T R3E = biological target: T9, BC2T R3E (human); assay: as above
T9 construct: position 3 library (BC2TR3X), row E
T9 peptide: Ac-PDEKAAVSHWQQ-NH2
In short: as §1

BC2T A6K = biological target: T10, BC2T A6K (human); assay: as above
T10 construct: position 6 library (BC2TA6X), row K
T10 peptide: Ac-PDRKAKVSHWQQ-NH2
In short: as §1

BC2T R3S = biological target: T11, BC2T R3S (human); assay: as above
T11 construct: position 3 library (BC2TR3X), row S
T11 peptide: Ac-PDSKAAVSHWQQ-NH2
In short: as §1

BC2T P1R = biological target: T12, BC2T P1R (human); assay: as above
T12 construct: position 1 library, row R
T12 peptide: Ac-RDRKAAVSHWQQ-NH2
In short: as §1

BC2T K4P = biological target: T13, BC2T K4P (human); assay: as above
T13 construct: position 4 library, row P
T13 peptide: Ac-PDRPAAVSHWQQ-NH2
In short: as §1

BC2T D2N = biological target: T14, BC2T D2N (human); assay: as above
T14 construct: position 2 library, row N
T14 peptide: Ac-PNRKAAVSHWQQ-NH2
In short: as §1

BC2T P1E = biological target: T15, BC2T P1E (human); assay: as above
T15 construct: position 1 library, row E
T15 peptide: Ac-EDRKAAVSHWQQ-NH2
In short: as §1

BC2T A5Q = biological target: T16, BC2T A5Q (human); assay: as above
T16 construct: position 5 library, row Q
T16 peptide: Ac-PDRKQAVSHWQQ-NH2
In short: as §1

BC2T R3T = biological target: T17, BC2T R3T (human); assay: as above
T17 construct: position 3 library (BC2TR3X), row T
T17 peptide: Ac-PDTKAAVSHWQQ-NH2
In short: as §1

BC2T P1W = biological target: T18, BC2T P1W (human); assay: as above
T18 construct: position 1 library, row W
T18 peptide: Ac-WDRKAAVSHWQQ-NH2
In short: as §1

BC2T A5C(Abu) = biological target: T19, BC2T A5C(Abu) (human, SMILES …); assay: as above
T19 construct: position 5 library, row C(Abu) / C*
T19 peptide: Ac-PDRK[GABA]AVSHWQQ-NH2
In short: as §1

BC2T A5E = biological target: T20, BC2T A5E (human); assay: as above
T20 construct: position 5 library, row E
T20 peptide: Ac-PDRKEAVSHWQQ-NH2
In short: as §1

BC2T D2W = biological target: T21, BC2T D2W (human); assay: as above
T21 construct: position 2 library, row W
T21 peptide: Ac-PWRKAAVSHWQQ-NH2
In short: as §1

BC2T Q12C(Abu) = biological target: T22, BC2T Q12C(Abu) (SMILES …); assay: positional peptide library pulldown on immobilised Nb, LC-MS of supernatant; signal ratio to control GFP-Nb (1 = not captured, near 0 = captured)
T22 construct: positional scanning library member
T22 peptide: Ac-PDRKAAVSHWQ[GABA]-NH2
Text: In total, 12 different BC2T libraries displaying all 20 proteinogenic amino acids in one single position of the peptide were used in immunoprecipitation experiments. […] The direct comparison with the GFP-Nb made it possible to determine the quantitative degree of peptide capture without the need of labeled standards. […] The more peptide was captured the more the value approximates 0. It was not possible to discriminate between isoleucine (I) and leucine (L) peptide versions since these peptides are isobaric.
To investigate the binding specificity of the BC2T and derived mutants peptide libraries for each amino acid position of the sequence […] (SEQ ID NO:4) were synthesized with acetyl and amide groups located at the N-termini or C-termini respectively (Intavis). […] Incubations were performed in 300 μl PBS/0.01% CHAPS for 1 h on a HulaMixer (Life Technologies). Subsequent to a centrifugation step 10 μl supernatant were analyzed in a LC-MS procedure. Peptides were separated using an UltiMate3000 RSLCnano System (Thermo Scientific), composed of a C18 PepMap100μ-Precolumn (300 μm×5 mm; particle size: 5 μm; pore size: 100 Å—Thermo Scientific) and a C18 analytical column (Acclaim Rapid Separation LC (RSLC) Column: 150 mm×5 mm; particle size: 2.2 μm; pore size: 100 Å—Thermo Scientific). A step gradient was applied starting at 8% and ending after 20 min at 30% eluent B (80% acetonitrile, 20% H₂O, 0.1% formic acid).

ratio (BC2T Q12C(Abu)): 0.2
B3: BC2-NbR106S (VHH)
VHH: QVQLVESGGGLVQPGGSLTLSCTASGFTLDHYDIGWFRQAPGKEREGVSCINNSDDDTYYADSVKGRFTIFMDNAKDTVYLQMNSLKPEDTAIYYCAEARGCKRGSYEYDFWGQGTQVTVSS
notes: headlock mutant of BC2-Nb; immobilised on beads in this assay

ratio (BC2T R3H): 0.7
ratio (BC2T P1F): 0.3
ratio (BC2T D2E): 0.4
ratio (BC2T R3D): 1
ratio (BC2T P1S): 0.6
ratio (BC2T A5W): 0.1
ratio (BC2T P1H): 0.6
ratio (BC2T P1T): 0.7
ratio (BC2T R3E): 1
ratio (BC2T A6K): 0.8
ratio (BC2T R3S): 0.9
ratio (BC2T P1R): 0.4
ratio (BC2T K4P): 1
ratio (BC2T D2N): 0.3
ratio (BC2T P1E): 0.8
ratio (BC2T A5Q): 0.3
ratio (BC2T R3T): 0.8
ratio (BC2T P1W): 0.3
ratio (BC2T A5C(Abu)): 0.3
ratio (BC2T A5E): 0.7
ratio (BC2T D2W): 0.3
B4: BC2-NbR106S (VHH)
VHH: B3 VHH
notes: immobilised on beads in this assay; not shown: C-terminal 6xHis-tag added by pHEN6 vector

The remaining lines, values behind:

B1: BC2 nanobody (BC2-Nb) (VHH)
VHH: B3 VHH with S106R
notes: immobilised on agarose/sepharose beads in this assay; also called BC2 nanotrap (immobilised form); not shown: C-terminal 6xHis-tag added by pHEN6 vector
ratio (BC2T R3H): 0.3
ratio (BC2T P1F): 0.2
ratio (BC2T D2E): 0.2
ratio (BC2T R3D): 1
ratio (BC2T P1S): 0.3
ratio (BC2T A5W): 0
ratio (BC2T P1H): 0.3
ratio (BC2T P1T): 0.5
ratio (BC2T R3E): 1
ratio (BC2T A6K): 1
ratio (BC2T R3S): 0.6
ratio (BC2T P1R): 0.2
ratio (BC2T K4P): 1
ratio (BC2T D2N): 0.2
ratio (BC2T P1E): 0.9
ratio (BC2T A5Q): 0.2
ratio (BC2T R3T): 0.3
ratio (BC2T P1W): 0.1
ratio (BC2T A5C(Abu)): 0.1
ratio (BC2T A5E): 0.2
ratio (BC2T D2W): 0.2

B2: BC2 nanobody (VHH)
VHH: B3 VHH with S106R
notes: immobilised on beads in this assay; also called BC2-Nb; BC2 nanotrap (immobilised)
ratio (BC2T Q12C(Abu)): 0.1
